Reference: patent US6984719B1, “Peptide antagonists of prostaglandin F2α receptor” (Hospital Sainte-Justine, priority 1998, dated 2006)
Square brackets hold non-standard residues; d marks the D form. Ends that are not written are not given here.

Experiments:
FP receptor = target: T1, FP receptor (Sus scrofa, UniProt C6GAG8); assay: Porcine eyecup model of ex vivo vasomotricity assay, PGF2α-induced constriction of retinal microvessels; design: species or system pig; conditions: for % Vasomotor response (of max constriction): compared to maximal constriction without peptide; for change of inhibitory activity of the peptide variant relative to the parent peptide: peptides at 100 μM, porcine retinal vasomotricity assay, structure-activity summary
T1 construct: from tissue; host or cells: eyecup / retinal microvessels of newborn pigs pretreated with ibuprofen
T1 sequence (C6GAG8 1-362): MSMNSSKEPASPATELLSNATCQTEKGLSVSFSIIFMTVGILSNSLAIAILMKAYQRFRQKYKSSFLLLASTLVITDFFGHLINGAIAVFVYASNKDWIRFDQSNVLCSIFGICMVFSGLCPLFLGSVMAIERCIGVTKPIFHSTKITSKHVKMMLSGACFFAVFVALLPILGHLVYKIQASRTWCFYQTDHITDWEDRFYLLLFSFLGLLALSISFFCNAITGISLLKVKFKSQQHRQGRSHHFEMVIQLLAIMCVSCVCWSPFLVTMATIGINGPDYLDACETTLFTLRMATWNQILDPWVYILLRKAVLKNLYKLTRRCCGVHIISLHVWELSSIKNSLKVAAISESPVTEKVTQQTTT
Text: In order to see if the peptides could inhibit FP function using an ex vivo model, we chose porcine eyecup model, an ex vivo assay of vascular constriction in porcine retinas which we previously described and validated (Li et al., 1996 J. Pharmacol. Expt. Therapeut. 278: 370–377; Li et al., 1997 Am. J. Physiol. 273: R1283–90; Abran et al., 1997 Am. J. Physiol. 272: R995–1001). Since FP receptor densities in newborn vasculature are minimal due to down regulation by high levels of circulating prostaglandins in the perinatal period, the newborn pigs were treated with a prostaglandin synthetase blocker, ibuprofen (30 mg/Kg of bodyweight/8 h for 24 h) to increase the density of the receptors as well as their vasomotor effects. By inhibiting circulating prostaglandins, we were able to show potent inhibition of FP receptor-mediated second messenger synthesis as well as FP-mediated vascular constriction in this eyecup model.
To prepare eyecups, a circular incision was made 3–4 mm posterior to ora serrata to remove the […] segment and vitreous body with minimal handling of the retina. The remaining eyecup was fixed with pins to a wax base in a 20 ml tissue bath containing 20 ml of Kreb's buffer (pH 7.35–7.45), protease inhibitors, leupetin and aprotinin (10 μg/ml each), and equilibrated with 21% oxygen and 5% carbon dioxide at 37° C. The preparations were allowed to stabilize for 30 min. Peptides at 100 μM were added and incubation was continued for 30 min before the addition of PGF2α.
Cumulative concentration-responses of PGF2α, and TxA2 mimetic, U46619, (10^−10 to 10^−5 M) curves were constructed separately. To assess the reversibility of the antagonists, the eyecups were thoroughly washed (which would wash away the peptide) with incubation medium and concentration response curves for PGF2α were determined. The outer vessel diameter was recorded with a video camera mounted on a dissecting microscope (Zeiss M 400™) and the responses were quantified by a digital image analyzer (Sigma Scan Software, Jandel Scientific, Corte Madera, Calif.). Vascular diameter was recorded before and 10 min following the topical application of the agent.
^1Percent vasomotor response in the presence of 100 μM peptide is calculated as percent change in average vascular diameter produced by 10^−7 M PGF2α to the eyecup in the presence of the peptide compared to maximal constriction observed in the absence of the peptide.
^2Percent inhibition produced by each peptide is calculated as (100-percent vasomotor response).
Small letters indicate L-amino acids and capital letters indicate D-amino acids. I=isoleucine; L=leucine; G=glycine; H=histidine; R=Arginine; D=Aspartic acid; Y=Tyrosine; K=Lysine; A=Alanine; W=Tryptophan; E=Glutamic acid; F=Phenyl alanine; Q=Glutamine; N=Aspargine; P=Proline; S=Serine; X=Cyclohexyl alanine. Peptides were dissolved in DMSO freshly just before the experiment as 10 mM stocks and added to the eye cups 30 min before the addition of 10^−7 M PGF2α.
These peptides incorporate L- to D-amino acid changes, deletions, subtle variations in aromaticity, hydrogen bond donor status as opposed to ionic interactions and hydrophobicity.

human FP receptor = target: T2, human FP receptor (Homo sapiens, UniProt P43088); assay: PGF2α-induced phosphoinositide hydrolysis (inositol phosphate synthesis) in HEK293 cells expressing FP receptor; assay type: cell-based; conditions: HEK293 cells stably expressing human FP receptor; 1 μM PGF2α; read-out: half maximal inhibitory concentration, inositol phosphate synthesis
T2 construct: expressed in transfected cells
T2 sequence (P43088 whole entry): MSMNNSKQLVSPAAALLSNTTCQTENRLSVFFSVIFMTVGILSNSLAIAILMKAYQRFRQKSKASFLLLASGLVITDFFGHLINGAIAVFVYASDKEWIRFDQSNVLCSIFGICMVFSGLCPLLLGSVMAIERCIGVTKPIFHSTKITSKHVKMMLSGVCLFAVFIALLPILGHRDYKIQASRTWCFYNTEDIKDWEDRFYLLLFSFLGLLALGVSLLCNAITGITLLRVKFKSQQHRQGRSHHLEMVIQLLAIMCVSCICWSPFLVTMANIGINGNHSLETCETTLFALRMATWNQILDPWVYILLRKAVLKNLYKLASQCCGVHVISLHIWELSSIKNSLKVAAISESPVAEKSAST
Procedure: Both PCP-8 and -10 were tested in HEK293 cells expressing the human FP receptor. For this purpose, HEK 293 cells stably expressing human FP receptor were plated in 12-well plates in DMEM medium containing 10% fetal bovine serum, penicillin (10 U/ml) and streptomycin (10 μg/ml) and cultured in a humidified atmosphere containing 5% CO2 at 37° C. After the wells were 80% confluent, the cells were labeled with 2 μCi/ml of [^3H]-myo inositol overnight. Next day, the cells were washed once with PBS, and incubated in 0.5 ml of Kreb's buffer containing 10 mM LiCl and indicated concentrations of PCP peptides for 30 min. PGF2α at 1 μM was added to the cells and the incubation was carried out for an additional 30 min. The cells were solubilized with 0.1 N NaOH for 10 min and neutralized with 0.1 N formic acid. The lysates were collected and 1 ml each of methanol and chloroform were sequentially added and vortexed briefly. After centrifugation to separate the phases, inositol phosphates were separated by ion exchange chromatography as described below (Berridge, M. J. et al., 1983, Biochem. J. 212:473–482).
Briefly, the medium was discarded and the IP3 synthesis was stopped by adding 0.6 ml ice-cold methanol. The cells were scraped and collected into polypropylene tubes. Distilled water (0.5 ml) and chloroform (0.6 ml) were added and vigorously vortexed for 2 min. The phases were separated by centrifugation at 6000×g for 10 min. The aqueous phase was applied to AG-1X-8™ (Formate form) anion exchange columns (1 ml bed volume) and free inositol was eluted with 10 ml of water, followed by 60 mM ammonium formate in 0.1 M formic acid. Then, the inositol phosphates were eluted with 5 ml of 1.2 M ammonium formate in 0.1 M formic acid. After adding 3 volumes of scintillation cocktail (Optiphase-HiSafe III), the eluates were counted by scintillation spectrophotometry.
Data are expressed as fold stimulation of inositol phosphate synthesis by 1 μM PGF2α compared to the unstimulated controls. […] The half maximal inhibitory concentrations for both PCP-8 and -10 were slightly less than 100 μM.

[1] = 100 μM peptide, 10^−7 M PGF2α, calculated as 100-percent vasomotor response

Substance	% inhibition of maximal response (FP receptor; [1]) [%]	% Vasomotor response (of max constriction) (FP receptor; 100 μM peptide, 10^−7 M PGF2α) [%]	change of inhibitory activity of the peptide variant relative to the parent peptide (FP receptor)	IC50 (human FP receptor) [µM]	Emax (FP receptor; 100 μM peptide, 10^−7 M PGF2α, calculated as 100-percent vasomotor response, read-out: % inhibition of maximal response) [%]
ILGWRDYK (Peptide antagonist derived from the sequence of the Prostaglandin F2-alpha receptor.) [PCP-13.22]	83.4	16.6	did not result in significant reduction of peptide inhibitory potency	–	–
PCP-13.23: PCP-13 with H changed to Y ([dI][dL]G[dY][dR][dD][dY][dK])	–	–	significant reduction of peptide inhibitory potency	–	–
ILaHRDYK ([dI][dL]A[dH][dR][dD][dY][dK]; not fully specified (residue 3); printed as ILaHRDYK) [PCP-13.8]	53.2	46.8	loss of activity	–	–
WEDRFYLL [PCP-10, wedrfyll]	–	20.0	–	< 100	80
ILGHRDYK (Peptide antagonist derived from the sequence of the Prostaglandin F2-alpha receptor.) [PCP-13]	80.0	20.0	increased the inhibitory potency dramatically	–	–
PCP-12: PCP-10 with the N-terminal hydrophobic dipeptide sequence removed (DRFYLL)	–	–	significant reduction in the inhibitory action	–	–
PCP-13.16: PCP-13 with glycine changed to proline ([dI][dL][dP][dH][dR][dD][dY][dK])	–	–	loss of activity	–	–
ILGHRDY-amide ([dI][dL]G[dH][dR][dD][dY]-NH2) [PCP-13.20]	50.4	49.6	moderate gain of activity	–	–
PCP-13.17: PCP-13 with the glycine residue deleted ([dI][dL][dH][dR][dD][dY][dK])	–	–	loss of activity	–	–
PCP-11: PCP-8 with the N-terminal hydrophobic dipeptide sequence removed (GHRDYK)	–	–	significant reduction in the inhibitory action	–	–
YQDRFYLL (Peptide antagonist derived from the sequence of the Prostaglandin F2-alpha receptor.) [PCP-14]	64.0	36.0	–	–	–
PCP-13.9: PCP-13 with terminal lysine substituted with W ([dI][dL]G[dH][dR][dD][dY][dW])	–	–	complete loss of activity	–	–
ILGHRDYK-amide ([dI][dL]G[dH][dR][dD][dY][dK]-NH2) [PCP-13.21]	53.8	46.2	moderate gain of activity	–	–
PCP-13.15: PCP-13 with deletion of terminal lysine ([dI][dL]G[dH][dR][dD][dY])	–	–	complete loss of activity	–	–
ILGHQDYK (Peptide antagonist derived from the sequence of the Prostaglandin F2-alpha receptor.) [PCP-13.18]	70.0	30.0	affected the activity of PCP-13 moderately	–	–
PCP-13.12: PCP-13 with D changed to E ([dI][dL]G[dH][dR][dE][dY][dK])	–	–	loss of half of the inhibitory activity	–	–
ILGHRNYK (Peptide antagonist derived from the sequence of the Prostaglandin F2-alpha receptor.) [PCP-13.14]	59.7	40.3	moderate loss of activity	–	–
PCP-13.19: PCP-13 with a serine substitution of D ([dI][dL]G[dH][dR][dS][dY][dK])	–	–	drastic loss of activity	–	–
PCP-13.10: PCP-13 with aromatic residue Y substituted with E ([dI][dL]G[dH][dR][dD][dE][dK])	–	–	completely abolished the inhibitory potency	–	–
ILGFRDYK (Peptide antagonist derived from the sequence of the Prostaglandin F2-alpha receptor.) [PCP-13.11]	87.0	13.0	did not result in significant reduction of peptide inhibitory potency	–	–
SNVLCSIF (Peptide antagonist derived from the sequence of the Prostaglandin F2-alpha receptor.) [PCP-15]	88.1	11.9	–	–	–
ILAHRDYK (Peptide antagonist derived from the sequence of the Prostaglandin F2-alpha receptor.) [PCP-13.7]	76.2	23.8	does not change the activity	–	–
